From patent publication US20220372168A1 come the findings set out here.

One test addresses Human FcγRI (human) (UniProt P12314). In words: SPR (Biacore T200), His-tagged FcγR captured on anti-penta-His chip, antibody injected. (Surface plasmon resonance follows binding to a sensor surface in real time, without labels.)
Test [1] has as its target Human FcγRIIIa (F176) (human) (UniProt P08637). The test is described as above.
For test [2], the target named is Human FcγRIIIa (V176) (human) (UniProt P08637). The description is as above.
Chain of Human FcγRIIIa (V176) (human) (P08637 17-208 F176V limits assumed): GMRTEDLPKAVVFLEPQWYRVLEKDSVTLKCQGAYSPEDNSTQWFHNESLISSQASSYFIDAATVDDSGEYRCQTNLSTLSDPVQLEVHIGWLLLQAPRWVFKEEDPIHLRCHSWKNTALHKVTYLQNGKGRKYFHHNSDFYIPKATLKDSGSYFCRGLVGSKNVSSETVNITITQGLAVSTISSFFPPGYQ
The next test has as its target Human FcγRIIIb (human) (UniProt O75015). The test is described as above.
Test [3] deals with Human FcγRIIa (H131) (human) (UniProt P12318). The test is described as above.
Chain of Human FcγRIIa (H131) (human) (P12318 36-218 limits assumed): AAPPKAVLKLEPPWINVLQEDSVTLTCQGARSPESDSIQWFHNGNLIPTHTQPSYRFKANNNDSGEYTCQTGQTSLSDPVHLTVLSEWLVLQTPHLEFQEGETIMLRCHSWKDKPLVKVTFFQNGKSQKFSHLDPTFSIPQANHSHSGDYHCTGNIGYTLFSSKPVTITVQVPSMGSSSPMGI
Test [4] addresses Human FcγRIIa (R131) (human) (UniProt P12318). Described as above.
Test [5] addresses Human FcγRIIb (human) (UniProt P31994). The description is as above.
Test [6] deals with Human FcγRIIa (H131) (human) (UniProt P12318). The experiment in a line: SPR (Biacore T200), His-tagged FcγR captured on anti-penta-His chip, kinetic or steady-state fit.
Test [7] has as its target Human FcγRIIa (R131) (human) (UniProt P12318). The description is as above.
Test [8] concerns the target Human FcγRIIb (human) (UniProt P31994). The description is as above.

Chain of Human FcγRIIb (human) (P31994 46-217 limits assumed): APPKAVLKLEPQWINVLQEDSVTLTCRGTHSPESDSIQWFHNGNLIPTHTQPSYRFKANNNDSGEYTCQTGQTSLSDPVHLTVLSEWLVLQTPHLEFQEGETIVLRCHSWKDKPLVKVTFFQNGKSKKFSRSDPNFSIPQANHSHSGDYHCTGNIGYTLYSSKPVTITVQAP
Chain of Human FcγRIIa (R131) (human) (P12318 36-218 H167R limits assumed): as the sequence (P12318 36-218 limits assumed) above, with H132R counted along it
Chain of Human FcγRI (human) (P12314 16-288 limits assumed): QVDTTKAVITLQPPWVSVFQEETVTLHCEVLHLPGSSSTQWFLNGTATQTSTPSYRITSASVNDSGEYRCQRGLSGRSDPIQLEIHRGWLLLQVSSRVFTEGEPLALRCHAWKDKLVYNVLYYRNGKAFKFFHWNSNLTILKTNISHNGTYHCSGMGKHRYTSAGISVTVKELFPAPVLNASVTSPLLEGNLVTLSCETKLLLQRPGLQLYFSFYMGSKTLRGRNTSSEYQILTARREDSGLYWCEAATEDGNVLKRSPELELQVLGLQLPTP
Chain of Human FcγRIIIa (F176) (human) (P08637 17-208 limits assumed): as the sequence (P08637 17-208 F176V limits assumed) above, with V160F counted along it
Chain of Human FcγRIIIb (human) (O75015 17-200 limits assumed): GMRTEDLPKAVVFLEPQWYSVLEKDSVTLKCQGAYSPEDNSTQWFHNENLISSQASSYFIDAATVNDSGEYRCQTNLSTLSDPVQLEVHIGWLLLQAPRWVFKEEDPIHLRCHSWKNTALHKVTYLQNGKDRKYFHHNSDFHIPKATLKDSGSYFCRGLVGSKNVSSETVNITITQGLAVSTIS

B1: mAb3 (antibody, part only; not given: variable domains, not shown: another chain or arm of the molecule)
Fc: ESKYGPPCPPCPAPPVAGPSVFLFPPKPKDTLMISRTPEVTCVVVDVSQEDPEVQFNWYVDGVEVHNAKTKPREEQFNSTYRVVSVLTVLHQDWLNGKEYKCKVSNKGLPSSIEKTISKAKGQPREPQVYTLPPSQEEMTKNQVSLTCLVKGFYPSDIAVEWESNGQPENNYKTTPPVLDSDGSFFLYSRLTVDKSRWQEGNVFSCSVMHEALHNHYTQKSLSLSLGK
By Kd is commonly meant a measure of binding affinity in units of concentration. Higher therefore signals lower affinity. As to B1, the binding signal (RU) was 36 RU in the test with Human FcγRI (human); 6 RU in test [1]; 34 RU in test [2]; -8 RU with Human FcγRIIIb (human); 419 RU in [3]; 340 RU in test [4]. This molecule also came in with a binding signal (RU) with Human FcγRIIb (human) [5] of 226 RU. In addition, the Kd in [6] is 1610 nM; in test [7] it was 1320 nM; in the test with Human FcγRIIb (human) [8] it was 12300 nM.
